How the values were obtained:
H3K9me3 = assay: H3K9 demethylase activity of KDM4 variants in transfected cells; format: cell-based; set-up: key: + indicates active; − indicates inactive; +/− indicates partial acitivty; conditions: KDM4A mutations
H3K36me3 = assay: H3K36 demethylase activity of KDM4A variants in transfected cells (immunofluorescence); format: cell-based; set-up: key: + indicates active; − indicates inactive; +/− indicates partial acitivty; conditions: KDM4A mutations

Molecule | H3k9 Demethylase Activity (H3K9me3) | H3k36 Demethylase Activity (H3K36me3)
2A-R825C*: KDM4A mutation (protein, UniProt O75164 2-1064, looked up, variant R825C) Lysine-specific demethylase 4A: ASESETLNPSARIMTFYPTMEEFRNFSRYIAYIESQGAHRAGLAKVVPPKEWKPRASYDDIDDLVIPAPIQQLVTGQSGLFTQYNIQKKAMTVREFRKIANSDKYCTPRYSEFEELERKYWKNLTFNPPIYGADVNGTLYEKHVDEWNIGRLRTILDLVEKESGITIEGVNTPYLYFGMWKTSFAWHTEDMDLYSINYLHFGEPKSWYSVPPEHGKRLERLAKGFFPGSAQSCEAFLRHKMTLISPLMLKKYGIPFDKVTQEAGEFMITFPYGYHAGFNHGFNCAESTNFATRRWIEYGKQAVLCSCRKDMVKISMDVFVRKFQPERYKLWKAGKDNTVIDHTLPTPEAAEFLKESELPPRAGNEEECPEEDMEGVEDGEEGDLKTSLAKHRIGTKRHRVCLEIPQEVSQSELFPKEDLSSEQYEMTECPAALAPVRPTHSSVRQVEDGLTFPDYSDSTEVKFEELKNVKLEEEDEEEEQAAAALDLSVNPASVGGRLVFSGSKKKSSSSLGSGSSRDSISSDSETSEPLSCRAQGQTGVLTVHSYAKGDGRVTVGEPCTRKKGSAARSFSERELAEVADEYMFSLEENKKSKGRRQPLSKLPRHHPLVLQECVSDDETSEQLTPEEEAEETEAWAKPLSQLWQNRPPNFEAEKEFNETMAQQAPHCAVCMIFQTYHQVEFGGFNQNCGNASDLAPQKQRTKPLIPEMCFTSTGCSTDINLSTPYLEEDGTSILVSCKKCSVRVHASCYGVPPAKASEDWMCSRCSANALEEDCCLCSLRGGALQRANDDRWVHVSCAVAILEARFVNIAERSPVDVSKIPLPCFKLKCIFCKKRRKRTAGCCVQCSHGRCPTAFHVSCAQAAGVMMQPDDWPFVVFITCFRHKIPNLERAKGALQSITAGQKVISKHKNGRFYQCEVVRLTTETFYEVNFDDGSFSDNLYPEDIVSQDCLQFGPPAEGEVVQVRWTDGQVYGAKFVASHPIQMYQVEFEDGSQLVVKRDDVYTLDEELPKRVKSRLSVASDMRFNEIFTEKEVKQEKKRQRVINSRYREDYIEPALYRAIME | + | +
2A-R825H*: KDM4A mutation (protein, UniProt O75164 2-1064, looked up, variant R825H) Lysine-specific demethylase 4A: ASESETLNPSARIMTFYPTMEEFRNFSRYIAYIESQGAHRAGLAKVVPPKEWKPRASYDDIDDLVIPAPIQQLVTGQSGLFTQYNIQKKAMTVREFRKIANSDKYCTPRYSEFEELERKYWKNLTFNPPIYGADVNGTLYEKHVDEWNIGRLRTILDLVEKESGITIEGVNTPYLYFGMWKTSFAWHTEDMDLYSINYLHFGEPKSWYSVPPEHGKRLERLAKGFFPGSAQSCEAFLRHKMTLISPLMLKKYGIPFDKVTQEAGEFMITFPYGYHAGFNHGFNCAESTNFATRRWIEYGKQAVLCSCRKDMVKISMDVFVRKFQPERYKLWKAGKDNTVIDHTLPTPEAAEFLKESELPPRAGNEEECPEEDMEGVEDGEEGDLKTSLAKHRIGTKRHRVCLEIPQEVSQSELFPKEDLSSEQYEMTECPAALAPVRPTHSSVRQVEDGLTFPDYSDSTEVKFEELKNVKLEEEDEEEEQAAAALDLSVNPASVGGRLVFSGSKKKSSSSLGSGSSRDSISSDSETSEPLSCRAQGQTGVLTVHSYAKGDGRVTVGEPCTRKKGSAARSFSERELAEVADEYMFSLEENKKSKGRRQPLSKLPRHHPLVLQECVSDDETSEQLTPEEEAEETEAWAKPLSQLWQNRPPNFEAEKEFNETMAQQAPHCAVCMIFQTYHQVEFGGFNQNCGNASDLAPQKQRTKPLIPEMCFTSTGCSTDINLSTPYLEEDGTSILVSCKKCSVRVHASCYGVPPAKASEDWMCSRCSANALEEDCCLCSLRGGALQRANDDRWVHVSCAVAILEARFVNIAERSPVDVSKIPLPHFKLKCIFCKKRRKRTAGCCVQCSHGRCPTAFHVSCAQAAGVMMQPDDWPFVVFITCFRHKIPNLERAKGALQSITAGQKVISKHKNGRFYQCEVVRLTTETFYEVNFDDGSFSDNLYPEDIVSQDCLQFGPPAEGEVVQVRWTDGQVYGAKFVASHPIQMYQVEFEDGSQLVVKRDDVYTLDEELPKRVKSRLSVASDMRFNEIFTEKEVKQEKKRQRVINSRYREDYIEPALYRAIME | + | +
2A-R765Q: KDM4A mutation (protein) MASESETLNPSARIMTFYPTMEEFRNFSRYIAYIESQGAHRAGLAKVVPPKEWKPRASYDDIDDLVIPAPIQQLVTGQSGLFTQYNIQKKAMTVREFRKIANSDKYCTPRYSEFEELERKYWKNLTFNPPIYGADVNGTLYEKHVDEWNIGRLRTILDLVEKESGITIEGVNTPYLYFGMWKTSFAWHTEDMDLYSINYLHFGEPKSWYSVPPEHGKRLERLAKGFFPGSAQSCEAFLRHKMTLISPLMLKKYGIPFDKVTQEAGEFMITFPYGYHAGFNHGFNCAESTNFATRRWIEYGKQAVLCSCRKDMVKISMDVFVRKFQPERYKLWKAGKDNTVIDHTLPTPEAAEFLKESELPPRAGNEEECPEEDMEGVEDGEEGDLKTSLAKHRIGTKRHRVCLEIPQEVSQSELFPKEDLSSEQYEMTECPAALAPVRPTHSSVRQVEDGLTFPDYSDSTEVKFEELKNVKLEEEDEEEEQAAAALDLSVNPASVGGRLVFSGSKKKSSSSLGSGSSRDSISSDSETSEPLSCRAQGQTGVLTVHSYAKGDGRVTVGEPCTRKKGSAARSFSERELAEVADEYMFSLEENKKSKGRRQPLSKLPRHHPLVLQECVSDDETSEQLTPEEEAEETEAWAKPLSQLWQNRPPNFEAEKEFNETMAQQAPHCAVCMIFQTYHQVEFGGFNQNCGNASDLAPQKQRTKPLIPEMCFTSTGCSTDINLSTPYLEEDGTSILVSCKKCSVRVHASCYGVPPAKASEDWMCSQCSANALEEDCCLCSLRGGALQRANDDRWVHVSCAVAILEARFVNIAERSPVDVSKIPLPRFKLKCIFCKKRRKRTAGCCVQCSHGRCPTAFHVSCAQAAGVMMQPDDWPFVVFITCFRHKIPNLERAKGALQSITAGQKVISKHKNGRFYQCEVVRLTTETFYEVNFDDGSFSDNLYPEDIVSQDCLQFGPPAEGEVVQVRWTDGQVYGAKFVASHPIQMYQVEFEDGSQLVVKRDDVYTLDEELPKRVKSRLSVASDMRFNEIFTEKEVKQEKKRQRVINSRYREDYIEPALYRAIME | − | −
2A-V1003A: KDM4A mutation (protein) MASESETLNPSARIMTFYPTMEEFRNFSRYIAYIESQGAHRAGLAKVVPPKEWKPRASYDDIDDLVIPAPIQQLVTGQSGLFTQYNIQKKAMTVREFRKIANSDKYCTPRYSEFEELERKYWKNLTFNPPIYGADVNGTLYEKHVDEWNIGRLRTILDLVEKESGITIEGVNTPYLYFGMWKTSFAWHTEDMDLYSINYLHFGEPKSWYSVPPEHGKRLERLAKGFFPGSAQSCEAFLRHKMTLISPLMLKKYGIPFDKVTQEAGEFMITFPYGYHAGFNHGFNCAESTNFATRRWIEYGKQAVLCSCRKDMVKISMDVFVRKFQPERYKLWKAGKDNTVIDHTLPTPEAAEFLKESELPPRAGNEEECPEEDMEGVEDGEEGDLKTSLAKHRIGTKRHRVCLEIPQEVSQSELFPKEDLSSEQYEMTECPAALAPVRPTHSSVRQVEDGLTFPDYSDSTEVKFEELKNVKLEEEDEEEEQAAAALDLSVNPASVGGRLVFSGSKKKSSSSLGSGSSRDSISSDSETSEPLSCRAQGQTGVLTVHSYAKGDGRVTVGEPCTRKKGSAARSFSERELAEVADEYMFSLEENKKSKGRRQPLSKLPRHHPLVLQECVSDDETSEQLTPEEEAEETEAWAKPLSQLWQNRPPNFEAEKEFNETMAQQAPHCAVCMIFQTYHQVEFGGFNQNCGNASDLAPQKQRTKPLIPEMCFTSTGCSTDINLSTPYLEEDGTSILVSCKKCSVRVHASCYGVPPAKASEDWMCSRCSANALEEDCCLCSLRGGALQRANDDRWVHVSCAVAILEARFVNIAERSPVDVSKIPLPRFKLKCIFCKKRRKRTAGCCVQCSHGRCPTAFHVSCAQAAGVMMQPDDWPFVVFITCFRHKIPNLERAKGALQSITAGQKVISKHKNGRFYQCEVVRLTTETFYEVNFDDGSFSDNLYPEDIVSQDCLQFGPPAEGEVVQVRWTDGQVYGAKFVASHPIQMYQVEFEDGSQLVVKRDDAYTLDEELPKRVKSRLSVASDMRFNEIFTEKEVKQEKKRQRVINSRYREDYIEPALYRAIME | + | +
